{"source": "patent US12091399B2", "about": "“Phenyltetrazole derivatives as plasma kallikrein inhibitors” (Boehringer Ingelheim International GmbH, priority 2018, dated 2024)", "key": {"[1]": {"tested_on": "Cc1cc(=O)oc2cc(NC(=O)[C@H](CCCNC(=N)N)NC(=O)[C@H](C)NC(=O)[C@H](CCC(=O)OCc3ccccc3)NC(=O)OC(C)(C)C)ccc12", "assay": "Inhibition of FXIa (Ki)", "format": "biochemical, human", "details": "other: substrate KM, enzyme FXIa; pH 7.8; 24.0 °C", "description": "(§1) The ability of compounds of formula (I) to inhibit plasma kallikrein (PKK), Factor XIIa (FXIIa), Factor XIa (FXIa), Factor Xa (FXa), Factor IIa (alpha-thrombin; FIIa), plasmin, trypsin, tissue kallikrein 1 (TK1), Factor Vila (FVIIa), or FVIIa complexed with Tissue Factor, phospholipids and CaCl2) (FVIIa/TF/PL/CaCl2) was determined using the following biochemical assays in assay buffer (100 mM Tris, 150 mM NaCL, adjusted to a pH of 7.8 with HCl, and containing 0.1% (w/v) BSA and 0.05% (v/v) Tween20) in the presence of 1% (v/v) DMSO:\n(§2) Human FXIa (0.5 nM or 0.016 U/mL; Enzyme Research Laboratories) was incubated at 24° C. with 0.25 mM fluorogenic substrate Boc-Glu(OBzl)-Ala-Arg-AMC.HCl (11575 from Bachem) and various concentrations of the test compound in assay buffer. Measurements were performed in a kinetic interval every 2nd minute for 16 min using a Spectramax M5 (Molecular Devices) with the following settings of the wavelength excitation of 350 nm and wavelength emission of 450 nm.\nThe pIC50 values were then fitted using a four-parametric fitting procedure using GraphPad Prism (version 6; GraphPad Software, Inc.). Respective Ki values were obtained by correction of the IC50 values for the respective KM value of the used substrate (see Table A for the obtained KM values of the used substrates) using the following formula: […]"}, "[2]": {"tested_on": "Cc1cc(=O)oc2cc(NC(=O)[C@H](CCCNC(=N)N)NC(=O)[C@H](Cc3ccccc3)NC(=O)[C@@H]3CCCN3)ccc12", "assay": "Inhibition of PKK (Ki), kinetic assay", "format": "biochemical, human", "details": "other: substrate KM, enzyme PKK; pH 7.8; 24.0 °C", "description": "as §1\nas §2, with “PKK (1.78” for “FXIa (0.5”, “0.025” for “0.016”, “H-Pro-Phe-Arg-AMC (11295” for “Boc-Glu(OBzl)-Ala-Arg-AMC.HCl (11575”, “nm. The number of the compound corresponds to the number of the Example in the experimental section.” for “nm.”\nThe pIC50 values were then fitted using a four-parametric fitting procedure using GraphPad Prism (version 6; GraphPad Software, Inc.). […]"}}}
{"substance": "Human FXIa (Homo sapiens)", "values": [{"measurement": "Km", "setting": "[1]", "value": 290, "unit": "µM"}]}
{"substance": "Human PKK (Homo sapiens)", "values": [{"measurement": "Km", "setting": "[2]", "value": 160, "unit": "µM"}]}
